Experimental data published in patent US20100086958A1, “NOVEL ENZYME” (priority 2008, published 2010).

Experiments:
Assay type in all cases: biochemical
[1] = Steady state kinetics for NADP^+ (FDH-catalysed formate oxidation)
Method: (§1) BcenFDH1 (Bsp184FDH) and BspFDH2 (Bsp383FDH) catalyzed oxidation of formate to CO2 was monitored by UV/Vis spectrophotometry in a 96-well plate format. A series of eight solutions of formate (0-200 mM) were prepared by successive dilutions of a stock solution of 0.5 M sodium formate in 0.1 M sodium phosphate buffer, pH 7.0. From this series, 170 μL was transferred into wells of the 96-well plate. 10 μL of the FDHs from a stock solution (64.1 μM for BcenFDH1 (Bsp184FDH) and 78.0 μM for BspFDH2 (Bsp383FDH)) were added into each well and equilibrated for 3 min at 30° C. The reaction was initiated by addition of 20 μL of NAD^+ or NADP^+ solution from a freshly prepared stock (10 mM) using an 8-channel pipette. The plate was then immediately placed into the plate reader. The plate was shaken for 5 s to ensure thorough mixing, and then time-based measurements were recorded every 15 s for 10 min. The rate of formate oxidation was calculated using an extinction coefficient of 3.38 mM^−1 (for 200 μL), which was determined using NADH standards. Km and Vmax values were obtained by non-linear regression to the Michaelis-Menten equation (Eq.1 below) using Origin v7 (Microcal Software Inc.).
Similar procedure were used for determination of Michaelis-Menten parameters for NAD^+ and NADP^+. A series of eight solutions of cofactor (0-75 mM) were prepared by successive dilutions of stock solutions. […] of sodium formate solutions (180 mM in well) were transferred into wells of the 96-well plate. 10 μL of the FDHs from a stock solution (64.1 μM for BcenFDH1 (Bsp184FDH) and 78.0 μM for BspFDH2 (Bsp383FDH)) were added into each well and equilibrated for 3 min at 30° C. The reaction was initiated by addition of 20 μL of NAD^+ or NADP^+ solutions using an 8-channel pipette. The plate was then immediately placed into the plate reader. The plate was shaken for 5 s to ensure thorough mixing, and then time-based measurements were recorded every 15 s for 10 min. The rate of formate oxidation was calculated using an extinction coefficient of 3.38 mM^−1 (for 200 μL), which was determined using NADH standards. Km and Vmax values were obtained by non-linear regression to the Michaelis-Menten equation as before.

[2] = Steady state kinetics for formate oxidation
Method: as §1

[3] = pH profile determination of FDH-catalysed formate oxidation; conditions: pHs as low 4 or as high as 10.5
Method: The pH profiles for BcenFDH1 (Bsp184FDH) and BspFDH2 (Bsp383FDH) catalyzed formate oxidation, shown in FIG. 13(a) and (b), were investigated by Uv/Vis spectrophotometry in a 96-well plate format. […] From this series, 170 μL was transferred into wells of the 96-well plate. 10 μL of the FDHs from a stock solution solution (64.1 μM for BcenFDH1 (Bsp184FDH) and 78.0 μM for BspFDH2 (Bsp383FDH)) were added into each well and equilibrated for 3 min at 30° C. The reaction was initiated by addition of 20 μL of NAD^+ solution from a freshly prepared stock (10 mM) using an 8-channel pipette. The plate was then immediately placed into the plate reader. The plate was shaken for 5 s to ensure thorough mixing, and then time-based measurements were recorded every 15 s for 10 min. The rate of formate oxidation was calculated using an extinction coefficient of 3.38 mM^−1 (for 200 μL).

[4] = Cytochrome P450 BM3/BspFDH2 coupled oxidation of 1-propylbenzene with NADPH regeneration
Method: (Li, Q.-S. et al., FEBS Letters 508, 249-252 (2001)) In this oxygen C—H reaction (FIG. 4a), one oxygen atom from an atmospheric O2 molecule is reduced to water by NADPH leaving the other ready for delivery to substrate. All P450's are NADPH-dependent. NADP^+ thus formed is then regenerated to NADPH by the action of BspFDH2 using formate. The overall atomic transformation is therefore the splitting of O2- with a hydride ion from formate using NADP^+ as a hydride shuttle.
200 μL of 1-propylbenzene (1a above, 1M in DMSO), sodium formate (3 M, 2 mL) and bovine serum albumin (100 mg/mL, 1 mL) were added in potassium phosphate buffer (100 mM, pH 7.6, 2 mL) and the reaction mixture was shaken for 3 min. NADP^+ (10 mM, 1 mL) and BspFDH2 (17 mg/mL, 500 μL) were added and the reaction shaken for 30 minutes at room temperature. After 30 minutes, wild type cytochrome P450-BM3 (WT P450 BM3, 2.4 mg/mL, 300 μL) was added and the reaction shaken at room temperature. The reaction was monitored by GC-MS (Rt˜3.2 minutes). After 15 hr, the reaction mixture was extracted by DCM (3×1 mL) and the combined organic phase was dried and the solvent removed to afford 1-phenylpropan-1-ol (2a above, >99% conversion based on GC chromatogram). […]

B1: Bsp383FDH: wild type FDH from Burkholderia sp 383, Seq ID No: 1, C-terminal His-tagged (protein, listed as Burkholderia sp.)
chain: MATVLCVLYPDPVDGYPPRYVRDAIPVITHYADGQTAPTPAGPPGFQPGELVGCVSGALGLRGYMEAHGHTLIVTSDKDSPDSEFERRLPEADVVISQPFWPAYLTAERIARAPKLKLALTAGIGSDHVDLDAAARARITVAEVTGSNSISVAEHVVMTTLALVRNYLPSHAIAQQGGWNIADCVSRSYDVEGMHFGTVGAGRIGLAVLRRLKPFGLQLHYTQRHRLDASIEQELGLTYHADAASLASAVDIVNLQIPLYPSTEHLFDAAMIARMKRGAYLINTARAKLVDRDAVVNALTSGHLAGYGGDVWFPQPAPADHPWRTMPFNGMTPHISGTSLSAQARYAAGTLEILQCWFDGKPIRNEYLIVDGGTLAGTGAQSYRLT
modifications: C-terminal His tag
**Q.** With B1 as the molecule, how does the Km ([1]; cofactor NADP^+, 0.18M formate) read?
**A.** 0.7 ± 0.1 mM

**Q.** What about the “kcat NADP^+” value ([1]; cofactor NADP^+, 0.18M formate) of the same molecule?
**A.** 2.77 ± 0.12 s⁻¹

**Q.** What about the “cofactor preference for NADP^+, times greater than those of known FDHs such as CmetFDH” value ([1]; relative to CmetFDH) of the same molecule?
**A.** 10^6 times

**Q.** And the kcat ([2]; formate oxidation with NADP^+)?
**A.** 6.1148 ± 0.4473 s⁻¹

**Q.** And the Km ([2]; formate oxidation with NAD^+)?
**A.** 50.1 ± 2.69 mM

**Q.** What about the kcat ([2]; formate oxidation with NAD^+) of the same molecule?
**A.** 0.772 ± 0.0158 s⁻¹

**Q.** And the “activity at extreme pH” value [3]?
**A.** highly active

**Q.** What about the reaction complete within ([4]; coupled with cytochrome P450 BM-3) of the same molecule?
**A.** ≤ 2 h

**Q.** What about the “conversion of propylbenzene to 1-phenyl-1-propanol” value ([4]; coupled with cytochrome P450 BM-3, NADPH regeneration from formate, GC) of the same molecule?
**A.** > 99%
